The text below walks through data of US20160362672.

The target of data set [1] is T1, soluble tissue factor (sTF), P13726.
T1 chain: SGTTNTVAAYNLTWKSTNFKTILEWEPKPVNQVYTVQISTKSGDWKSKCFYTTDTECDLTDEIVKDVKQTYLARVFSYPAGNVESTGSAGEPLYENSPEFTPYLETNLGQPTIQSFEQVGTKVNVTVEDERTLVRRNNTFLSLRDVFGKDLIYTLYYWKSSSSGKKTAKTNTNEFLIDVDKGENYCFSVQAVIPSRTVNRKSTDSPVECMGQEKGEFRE

For “FXI protease (activated factor XI, FXIa)”, in the data set with FIX-/FXI/-XTEN_AE864, the Concentration by Activity (ng/ml), aPTT based factor assay is 11 ng/mL; the “Fraction Active” value is 40%; the “enhancement of clotting activity against FIX-XTEN without a cleavage site (aPTT based factor assay)” value is on record as “In all three cases the presence of a FXI cleavage site enhanced the clotting activity by greater than 30-fold”. Also, in the data set with FIX-DFTRVVG-XTEN_AE864, the Concentration by Activity (ng/ml), aPTT based factor assay was 9 ng/mL; the “Fraction Active” value was 34%; the “enhancement of clotting activity against FIX-XTEN without a cleavage site (aPTT based factor assay)” value is listed as “In all three cases the presence of a FXI cleavage site enhanced the clotting activity by greater than 30-fold”. Further, in the data set on FIX-KLTRAET-XTEN_AE864, the Concentration by Activity (ng/ml), aPTT based factor assay worked out at 7 ng/mL; the “Fraction Active” value is recorded as 30%; the “enhancement of clotting activity against FIX-XTEN without a cleavage site (aPTT based factor assay)” value is “In all three cases the presence of a FXI cleavage site enhanced the clotting activity by greater than 30-fold”.

B1: FVIIa-AE288 (protein)
chain: AVFVTQEEAHGVLHRRRRANAFLEELRPGSLERECKEEQCSFEEAREIFKDAERTKLFWISYSDGDQCASSPCQNGGSCKDQLQSYICFCLPAFEGRNCETHKDDQLICVNENGGCEQYCSDHTGTKRSCRCHEGYSLLADGVSCTPTVEYPCGKIPILEKRNASKPQGRIVGGKVCPKGECPWQVLLLVNGAQLCGGTLINTIWVVSAAHCFDKIKNWRNLIAVLGEHDLSEHDGDEQSRRVAQVIIPSTYVPGTTNHDIALLRLHQPVVLTDHVVPLCLPERTFSERTLAFVRFSLVSGWGQLLDRGATALELMVLNVPRLMTQDCLQQSRKVGDSPNITEYMFCAGYSDGSKDSCKGDSGGPHATHYRGTWYLTGIVSWGQGCATVGHFGVYTRVSQYIEWLQKLMRSEPRPGVLLRAPFPGSPGTSESATPESGPGSEPATSGSETPGTSESATPESGPGSEPATSGSETPGTSESATPESGPGTSTEPSEGSAPGSPAGSPTSTEEGTSESATPESGPGSEPATSGSETPGTSESATPESGPGSPAGSPTSTEEGSPAGSPTSTEEGTSTEPSEGSAPGTSESATPESGPGTSESATPESGPGTSESATPESGPGSEPATSGSETPGSEPATSGSETPGSPAGSPTSTEEGTSTEPSEGSAPGTSTEPSEGSAPGSEPATSGSETPGTSESATPESGPGTSTEPSEGSAPGSSS
B1: the “FVIIa activity by soluble tissue factor (sTF) induced clotting (Stago STA-Clot FVIIa activity assay kit)” value in data set [1] is “an activity equivalent to 112 U/ml of FVIIa activity”.
